Assay results published in patent CN104974246A (INST PASTEUR SHANGHAI CAS, dated 2015).

How the values were obtained:
Assay in all cases: cell-based or functional assay
[1] = molecular target: HCV 1b亚型 PR52B6M 毒株的 E2蛋白 (on virus) (hepatitis C virus subtype 1b, strain …)
[2] = molecular target: T1, HCV 2a亚型 JFH1 毒株的 E2蛋白 (on virus) (hepatitis C virus subtype 2a, strain …, UniProt Q99IB8 384-750)
T1 sequence: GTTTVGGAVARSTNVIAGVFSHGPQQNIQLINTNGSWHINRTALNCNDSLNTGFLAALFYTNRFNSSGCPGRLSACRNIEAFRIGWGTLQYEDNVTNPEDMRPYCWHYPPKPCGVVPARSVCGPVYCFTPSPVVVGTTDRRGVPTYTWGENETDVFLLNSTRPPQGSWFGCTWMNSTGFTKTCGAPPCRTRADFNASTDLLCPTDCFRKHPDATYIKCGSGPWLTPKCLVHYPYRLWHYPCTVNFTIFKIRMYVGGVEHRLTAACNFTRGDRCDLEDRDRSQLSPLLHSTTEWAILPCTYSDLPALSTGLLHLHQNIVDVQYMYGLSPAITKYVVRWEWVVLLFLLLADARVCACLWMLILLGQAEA

[3] = molecular target: HCV 2a亚型 PR79 毒株的 E2蛋白 (on virus) (hepatitis C virus subtype 2a, strain …)
[4] = molecular target: HCV 1b亚型 PR79 毒株的 E2蛋白 (on virus) (hepatitis C virus subtype 1b, strain …)

Measured: 对 HCV真病毒的抑制率 (真病毒中和试验)

B1: 全人单克隆抗体7F2 (antibody, V domains shown)
VH: QVQLQQWGAGLLKPSETLSLTCAVYGGSFSGYYWNWIRQPPGKGLEWIGEINPRGTANHNPSLKSRVTISVGTSRNQFSLKLRAVTAADTAVYYCARGIHDTLTGYLAFYFDYWGQGTPVTVSS
VL: DIQMTQSPSSLSASVGDTVTITCRASQNIDRHLNWYQQKAGKAPKVLIYAASGLQSGVSSRFSGSGSGTEFTLTINDLEPEDFATYYCQQYYDTLGYTFGQGTKVEIK
> 90%: all assays above
